Assay results taken from paper PMC5799168 (Scientific Reports, 2018).
Substitutions are numbered along the chain they refer to. In names and notes the source's numbering stands.

T1: Ndi1 (Saccharomyces cerevisiae, UniProt P32340)
T1 construct: The mature Ndi1, which lacks a mitochondrial targeting; (His)10; made in house; host or cells: E. coli BL21(DE3)pLysS, plasmid pET16b(NDI1-m)
T1 sequence (P32340 27-513): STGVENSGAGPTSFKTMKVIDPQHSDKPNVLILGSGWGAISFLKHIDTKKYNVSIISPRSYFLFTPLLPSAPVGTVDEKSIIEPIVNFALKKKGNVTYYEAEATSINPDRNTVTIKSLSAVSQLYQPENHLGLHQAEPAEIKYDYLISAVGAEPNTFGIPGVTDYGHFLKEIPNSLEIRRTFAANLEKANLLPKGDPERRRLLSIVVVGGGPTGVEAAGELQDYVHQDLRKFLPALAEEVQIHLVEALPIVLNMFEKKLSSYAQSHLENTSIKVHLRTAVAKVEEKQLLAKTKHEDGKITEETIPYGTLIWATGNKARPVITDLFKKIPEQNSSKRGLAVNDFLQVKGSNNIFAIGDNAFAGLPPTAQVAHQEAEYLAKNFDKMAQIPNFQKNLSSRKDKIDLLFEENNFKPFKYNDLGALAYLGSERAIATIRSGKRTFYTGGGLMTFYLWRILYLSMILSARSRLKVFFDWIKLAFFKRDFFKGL

B1: M485E: recombinant Ndi1 mutant M485E (protein, UniProt P32340 27-513, looked up, variant M485E)
Rotenone-insensitive …: T1 sequence (P32340 27-513) with M459E
B2: S484I: recombinant Ndi1 mutant S484I (protein, UniProt P32340 27-513, looked up, variant S484I)
Rotenone-insensitive …: T1 sequence (P32340 27-513) with S458I
B3: P92A: recombinant Ndi1 mutant P92A (protein, UniProt P32340 27-513, looked up, variant P92A)
Rotenone-insensitive …: T1 sequence (P32340 27-513) with P66A
B4: Wild type: wild-type recombinant Saccharomyces cerevisiae Ndi1 (NADH dehydrogenase) (protein, UniProt P32340 27-513, looked up)
Rotenone-insensitive …: T1 sequence (P32340 27-513)
B5: R479K: recombinant Ndi1 mutant R479K (protein, UniProt P32340 27-513, looked up, variant R479K)
Rotenone-insensitive …: T1 sequence (P32340 27-513) with R453K
B6: S484F: recombinant Ndi1 mutant S484F (protein, UniProt P32340 27-513, looked up, variant S484F)
Rotenone-insensitive …: T1 sequence (P32340 27-513) with S458F
B7: R479H: recombinant Ndi1 mutant R479H (protein, UniProt P32340 27-513, looked up, variant R479H)
Rotenone-insensitive …: T1 sequence (P32340 27-513) with R453H
B8: I459N: recombinant Ndi1 mutant I459N (protein, UniProt P32340 27-513, looked up, variant I459N)
Rotenone-insensitive …: T1 sequence (P32340 27-513) with I433N
B9: R479A: recombinant Ndi1 mutant R479A (protein, UniProt P32340 27-513, looked up, variant R479A)
Rotenone-insensitive …: T1 sequence (P32340 27-513) with R453A
B10: L444N: recombinant Ndi1 mutant L444N (protein, UniProt P32340 27-513, looked up, variant L444N)
Rotenone-insensitive …: T1 sequence (P32340 27-513) with L418N
B11: L447N: recombinant Ndi1 mutant L447N (protein, UniProt P32340 27-513, looked up, variant L447N)
Rotenone-insensitive …: T1 sequence (P32340 27-513) with L421N
B12: R479I: recombinant Ndi1 mutant R479I (protein, UniProt P32340 27-513, looked up, variant R479I)
Rotenone-insensitive …: T1 sequence (P32340 27-513) with R453I
B13: M485A: recombinant Ndi1 mutant M485A (protein, UniProt P32340 27-513, looked up, variant M485A)
Rotenone-insensitive …: T1 sequence (P32340 27-513) with M459A
B14: Y482F: recombinant Ndi1 mutant Y482F (protein, UniProt P32340 27-513, looked up, variant Y482F)
Rotenone-insensitive …: T1 sequence (P32340 27-513) with Y456F
B15: Q394A: recombinant Ndi1 mutant Q394A (protein, UniProt P32340 27-513, looked up, variant Q394A)
Rotenone-insensitive …: T1 sequence (P32340 27-513) with Q368A

How the values were obtained:
[1] = target: T1, Ndi1; test: Inhibition of NADH-ubiquinone-1 oxidoreductase activity of the purified Ndi1; format: biochemical; conditions: for IC50: NADH-ubiquinone-1 oxidoreductase activity, purified recombinant Ndi1, 100 µM NADH, pH 6.0, mean ± S.E.M of three independent experiments; for Inhibition mode: inhibition mode for ubiquinone-1, from intersection point in Lineweaver-Burk plots, 100 µM NADH; for Ki: non-linear regression of mixed type inhibition (GraphPad Prism 6), versus ubiquinone-1; for Ki / α (α > 0): mean ± S.D.; for α (α > 0): α of mixed model inhibition fit (αKi = dissociation constant of ternary enzyme-substrate-inhibitor complex)
Method: NADH-ubiquinone oxidoreductase activity was measured as described previously. In brief, the reaction was started by adding 100 µM NADH to the enzyme mixture containing 10 ng/mL Ndi1, 50 mM sodium phosphate (pH 6.0) and 1 mM EDTA, which was pre-incubated with various concentrations of ubiquinone-1 for 1 min. […] The concentrations of inhibitors required to obtain the half-maximal inhibition (IC50) were estimated by non-linear regression dose-response curves. The inhibition mode of each inhibitor for ubiquinone-1 was determined by the intersection point in double-reciprocal plots (Fig. 2B–E). To objectively evaluate the inhibition mode, the data of the inhibition kinetics were fitted to the Eq.
This equation provides two dissociation constants, one for the binary enzyme-inhibitor complex (Ki), the other for the ternary enzyme-substrate-inhibitor complex (αKi).

[2] = tested on: wild-type and mutant Ndi1; test: Kinetic parameters of the oxidoreductase activity of wild-type and mutant Ndi1 for ubiquinone-1; format: biochemical, Saccharomyces cerevisiae; conditions: for Km: apparent Km for ubiquinone-1 (2.4–60 µM); for Km / Vmax: NADH fixed at 100 µM; for Vmax: ubiquinone-1 as substrate (2.4–60 µM)
Method: This unique structure appears to be related to the competitive nature of the inhibition of Ndi1 oxidoreductase activity by stigmatellin. It is therefore hypothesized that L444, I459, R460, and S461, which interact with stigmatellin at the STG-1a site, are also involved in the binding of the substrate ubiquinone (Fig. 5). This hypothesis was evaluated by examining the effects of mutations of the proximal L444 and I459 on the kinetics of the enzymatic reaction of Ndi1. The effect of the mutation of S484, which specifically interacts with stigmatellin at the STG-1b site, was examined as a control. Furthermore, the effects of mutations of W63, P92, A393, Q394, H397, L447, Y482, M485, and L487, which interact with the aromatic head group of stigmatellin at the STG-1a and STG-1b sites, were also examined. Moreover, to investigate the functional role of the STG-2 site in ubiquinone binding, a mutation was also introduced to R479.
NADH-ubiquinone oxidoreductase activity was measured as described previously. In brief, the reaction was started by adding 100 µM NADH to the enzyme mixture containing 10 ng/mL Ndi1, 50 mM sodium phosphate (pH 6.0) and 1 mM EDTA, which was pre-incubated with various concentrations of ubiquinone-1 for 1 min. The decrease in 340 nm absorbance was measured as an indication of the oxidation of NADH (ε = 6.22 mM^−1 cm^−1) with a Shimadzu UV2000 spectrophotometer (Kyoto, Japan). The enzymatic activity obtained with 100 µM NADH and 60 µM ubiquinone-1 in the absence of any inhibitors (100% activity) catalyzed the oxidation of 1,890 μmol NADH/min/mg Ndi1. The concentrations of inhibitors required to obtain the half-maximal inhibition (IC50) were estimated by non-linear regression dose-response curves. The inhibition mode of each inhibitor for ubiquinone-1 was determined by the intersection point in double-reciprocal plots (Fig. 2B–E). To objectively evaluate the inhibition mode, the data of the inhibition kinetics were fitted to the Eq. (1) of mixed model inhibition in the Prism6 software program (GraphPad Software, Inc., La Jolla, CA).1 V=Vmax[S]/[S](1+[I]/αKi)+Km(1+[I]/Ki) […]
To determine the kinetic parameters of wild-type and mutant enzymes for ubiquinone-1, the NADH oxidation rates were measured in a fixed concentration of NADH (100 µM) and different concentrations of ubiquinone-1 (2.4–60 µM). Apparent Km and Vmax values were obtained by fitting a data set of initial velocity versus substrate concentration to the Michaelis-Menten model equation in the Prism6 software program.
Site-directed mutagenesis. The amino acid replacements of Ndi1 were basically performed with PrimeSTAR mutagenesis basal kit (Takara, Japan) using pET16b(NDI1-m) (2) and a synthetic oligonucleotide primer set (Table S2). The mutagenesis of H397 was performed with a QuikChange II XL site-directed mutagenesis kit (Stratagene, CA). Each mutation was confirmed through DNA sequencing (DNA sequencing service, Eurofins). The purification procedure of wild-type and mutant enzymes, used for the determination of the kinetic parameters (Table 2), was basically the same as the above procedure, without the replacement of the detergent from Triton X -100 with DDM. After washing the enzyme with buffer A containing 0.1% Triton X-100 and 15 mM histidine, 0.02% Triton X-100 was added to all buffer as a substitute for DDM. With the exception of 5 mutants containing L444D, I459A, […]
yield of the wild-type enzyme. […]

Molecule	Km [2] [µM]	Vmax, % of the wild-type activity ([2]; relative to wild-type Ndi1) [%]	Vmax [2] [µmol/min/mg]	also measured
CCCCCCCCCCCCc1cc(=O)c2ccccc2n1O [AC0-12, 1-hydroxy-2-dodecyl-4(1 H) quinolone]	–	–	–	IC50 [1]: 115 ± 18 nM; Inhibition mode [1]: mixed; Ki [1]: 14 ± 1.9 nM; α (α > 0) [1]: 13.0±11.7
CC(/C=C/[C@@]1(C)[C@H](C)CCC(=O)[C@@H]1C)=C\Cc1c(O)c(Cl)c(C)c(C=O)c1O [Ascochlorin, ascochlorin]	–	–	–	IC50 [1]: 955 ± 139 nM; Inhibition mode [1]: mixed; Ki [1]: 728 ± 191 nM; α (α > 0) [1]: 2.64±1.87
C/C=C(C)/C=C/C=C/[C@H](OC)[C@@H](C)[C@@H](OC)[C@@H](C)CCc1oc2c(O)c(OC)cc(OC)c2c(=O)c1C [Stigmatellin, stigmatellin]	–	–	–	IC50 [1]: 107 ± 21 nM; Inhibition mode [1]: competitive; Ki [1]: 93.9 ± 30.4 nM; α (α > 0) [1]: ~6.33×10^20; α (α > 0) ([1]; listed as stigmatellin): close to infinity
B1	63.5 ± 7.8	112	1190 ± 96	increase of Km value for ubiquinone-1 in comparison to wild-type enzyme ([2]; relative to wild-type Ndi1): 2.8 fold
B2	25 ± 1.7	–	1010 ± 33	–
B3	25.6 ± 2.2	1	11.3 ± 0.4	–
B4	22.7 ± 1	–	1060 ± 6.1	–
B5	9.37 ± 0.48	29	305 ± 5.8	–
B6	24.5 ± 3.9	–	1160 ± 120	–
B7	23.5 ± 1.4	0.1	1.06 ± 0.035	–
B8	30.3 ± 2	–	11.1 ± 0.096	–
B9	11.5 ± 0.58	30	316 ± 6.1	–
B10	23.9 ± 2	–	1333 ± 14	–
B11	17.9 ± 1.8	13	140 ± 7.1	–
B12	27.7 ± 1.2	–	0.313 ± 0.007	–
B13	18.6 ± 1.1	28	292 ± 9.9	–
B14	23.3 ± 2	–	1090 ± 45	–
B15	24.5 ± 1.7	37	391 ± 3.3	–
